Results reported in patent publication US20200181211A1.

What was measured:
[1] = biological target: manually pulled Fn fibers (relaxed, fibrillar fibronectin from human plasma, 5% Fn-Cy5) (human) (UniProt P02751); experiment: titration of fluorescent peptide on relaxed manually pulled Fn fibers, confocal intensity ratio peptide/Fn-Cy5, Hill fit
[2] = biological target: soluble plasma fibronectin (Fn) isolated from human plasma (human) (UniProt P02751); experiment: fluorescence anisotropy titration, 100 nM labelled peptide, Fn 0 to 1.4 µM in PBS, one-site-binding model
[3] = biological target: manually pulled Fn fibers (relaxed, fibrillar fibronectin from human plasma, 5% Fn-Cy5) (human) (UniProt P02751); experiment: displacement assay on relaxed manually pulled Fn fibers, competitor of FnBPA5-Alexa488

Substance	Kd [1] [µM]	Kd [2] [µM]	IC50 [3] [µM]
FnBPA5-Alexa488 (peptide)	0.028	0.075	
natIn-FnBPA5 (cold labeled) (peptide)			0.049
